Data as given in the supplement of paper PMC10724198.
± gives the standard deviation of the averaged measurements.

system: Saccharomyces cerevisiae; experiment: protein stability index of tFT-peptide fusion (C-terminal peptide) (PSI (0-1 scale)); higher = more stable (slower turnover); details: genetic background: wild type; temperature: 30 C
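Note: PSI is a weighted mean of sequencing reads over stability bins, variants kept only with over 10 reads, mCherry proximal and sfGFP distal, peptide attached via GGGS linker.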

Sequence | protein stability index
RSAMRLFEPFSP | 0.745 ± 0.19
RSEGEGGKGKRE | 0.687 ± 0.019
RSFVSRGSILWF | 0.723 ± 0.13
RSGAAREVSGGA | 0.7546 ± 0.0052
RSGRCWSFPFSV | 0.703 ± 0.026
RSHRGSPCPLVP | 0.69 ± 0.025
RSISGVNMENVQ | 0.639 ± 0.018
RSLDEPCGFFRP | 0.637 ± 0.023
RSLSLAPSFPLP | 0.697 ± 0.0086
RSPINSRRGGVV | 0.689 ± 0.0097
RSPPAPRFLPAP | 0.652 ± 0.049
RSPPPLPSPPSH | 0.709 ± 0.035
RSPPPPPGPRFP | 0.698 ± 0.019
RSPPTQGQTPTT | 0.696 ± 0.028
RSRCYSNIRIFI | 0.589 ± 0.048
RSRSELRVFCTS | 0.556 ± 0.011
RSSARPQNRPLP | 0.733 ± 0.035
RSSFCILCCLFS | 0.557 ± 0.024
RSSIGNLCCRLL | 0.6884 ± 0.0034
RSSPPSPPLLSP | 0.611 ± 0.023
RSSTYGIMYSYR | 0.715 ± 0.035
RSYRLRTSRADI | 0.683 ± 0.1
RTHTAALCRTHS | 0.7047 ± 0.0057
RTLAGLLVDSHV | 0.679 ± 0.041
RTLHKKRLLAHR | 0.693 ± 0.041
RTLSSFSPGYLF | 0.8548 ± 0.0033

Sequence | protein stability index
RTLYEAAPLFVG | 0.729 ± 0.051
RTRLPYVPAPAP | 0.686 ± 0.0092
RTRSVPWEPRYF | 0.687 ± 0.03
RTSCEQYERGLM | 0.673 ± 0.012
RTSPRSHVSRSL | 0.79 ± 0.056
RTVPCCVAENKF | 0.672 ± 0.012
RVCFVTNLVDVT | 0.721 ± 0.096
RVDALVHLPLRL | 0.629 ± 0.03
RVETYQKMTSRL | 0.757 ± 0.0092
RVFDPSRSTVVE | 0.774 ± 0.018
RVGHGHRSPTRV | 0.677 ± 0.14
RVGRGGGRETRG | 0.699 ± 0.031
RVGRNLRVGGES | 0.69 ± 0.008
RVGTHDRTRAHG | 0.601 ± 0.02
RVGVRGVVVSMG | 0.612 ± 0.075
RVLGGGVLGVLV | 0.711 ± 0.0099
RVLLYWRGSGVL | 0.577 ± 0.071
RVLSCAFSTLWA | 0.711 ± 0.12
RVMGRHIGRPRE | 0.702 ± 0.015
RVPDNYLKWSYI | 0.719 ± 0.051
RVRFRVYKGGAL | 0.661 ± 0.041
RVRGDRLGGRGT | 0.706 ± 0.043
RVRGGGPRESGQ | 0.728 ± 0.024
RVSAPPSFHGSF | 0.722 ± 0.014
RVSGYTHPLLSC | 0.679 ± 0.079
RVSLREVKAEKN | 0.682 ± 0.057

Sequence | protein stability index
RVTVWHELTVDC | 0.569 ± 0.0083
RVVGGGGEAWRE | 0.73 ± 0.033
RVWAGGGGGDGC | 0.691 ± 0.021
RVYTSAWAPDWR | 0.62 ± 0.056
RWCRLGHRWRVV | 0.563 ± 0.054
RWFTFPVPVPFC | 0.642 ± 0.036
RWGGGKWWRGAE | 0.659 ± 0.018
RWSVLSRSCSSY | 0.729 ± 0.034
RWTRFISLTGTG | 0.637 ± 0.064
RWVEGVWGVWCG | 0.757 ± 0.042
RYCESKVFKERE | 0.742 ± 0.049
RYFPNRGSGLTY | 0.786 ± 0.037
RYIKSRMLIIER | 0.56 ± 0.049
RYLVLPDLCPIS | 0.736 ± 0.1
RYPPVQPRRAQR | 0.593 ± 0.031
RYRSRHHSTYVL | 0.635 ± 0.26
RYSRVALRPRPP | 0.579 ± 0.052
RYTKYKSYPYDI | 0.6897 ± 0.0023
SACPPIPPPPPP | 0.635 ± 0.026
SAGGCSVMAGNG | 0.709 ± 0.11
SAGVIVPGRAGR | 0.761 ± 0.082
SAHPFKSCPIGR | 0.682 ± 0.0094
SAKGGVLLIGLF | 0.603 ± 0.2
SALRGTDMREEV | 0.632 ± 0.023
SAPFGFLFFARL | 0.815 ± 0.083
SAPLRHTSSSPS | 0.697 ± 0.043

Sequence | protein stability index
SAPPSPPLPPPC | 0.677 ± 0.067
SAPRDLYIHFSR | 0.7371 ± 0.0014
SARGRTRTADPS | 0.677 ± 0.048
SARRFPPPPSSS | 0.702 ± 0.046
SASSESTFLRAR | 0.641 ± 0.012
SATALTANHPKM | 0.677 ± 0.0096
SCITFGGWLGGM | 0.709 ± 0.13
SCLCIHEIFLRL | 0.672 ± 0.016
SCLWRGHDTVWL | 0.662 ± 0.098
SCSFLISLLLLP | 0.525 ± 0.023
SCTGGLVSVRGV | 0.666 ± 0.023
SCVNGYSVCMCW | 0.524 ± 0.046
SCWVLPFHYGSG | 0.714 ± 0.026
SDDTIQNQICPG | 0.66 ± 0.059
SDIHSSMTSGSF | 0.669 ± 0.014
SDLKARYHCGRD | 0.652 ± 0.075
SDPASVIPMELE | 0.673 ± 0.052
SDRLLYLGNYDV | 0.773 ± 0.0011
SDTPTHVLGPPY | 0.716 ± 0.038
SEKKKKNKKNKK | 0.714 ± 0.2
SELTCSSINSAT | 0.673 ± 0.024
SENVSATLNNQD | 0.708 ± 0.028
SEPCSASLSVSL | 0.64 ± 0.045
SEPPFSFLNVSP | 0.676 ± 0.018
SEVPCENSRRVV | 0.667 ± 0.08
SFFFFSPFSRLS | 0.693 ± 0.032

Sequence | protein stability index
SFFFLVPFSVFL | 0.586 ± 0.1
SFFLMTPPPSLR | 0.698 ± 0.12
SFGLAPLSSFFC | 0.705 ± 0.078
SFGLSYYFRNSL | 0.731 ± 0.066
SFLHSRAELPAG | 0.604 ± 0.065
SFLIADLPSTPP | 0.763 ± 0.13
SFLSPPSPPHSP | 0.639 ± 0.01
SFPLPPLSPPSR | 0.73 ± 0.048
SFPPPFLISLSP | 0.676 ± 0.042
SFPPPHPPPPLP | 0.6998 ± 0.0045
SFPPSPLPPPPR | 0.586 ± 0.018
SFRVLCHGAQLL | 0.634 ± 0.065
SFSRFFAIRPSF | 0.723 ± 0.091
SFTSGFTDAGNI | 0.6008 ± 0.0047
SFYSAALSCVFI | 0.737 ± 0.15
SGACRLEESGKV | 0.755 ± 0.061
SGGCDNGRMRWV | 0.682 ± 0.07
SGGGGVLGWRGG | 0.682 ± 0.022
SGGGVGGQVAVG | 0.715 ± 0.087
SGGPDCLSMSGL | 0.694 ± 0.025
SGGRSPYLLVGL | 0.725 ± 0.053
SGGRVSGLVGEE | 0.673 ± 0.031
SGGSALGCGRAA | 0.658 ± 0.063
SGGVWWGRGRVS | 0.727 ± 0.058
SGGWGGGDCVGA | 0.69 ± 0.014
SGGWLAACYAVY | 0.668 ± 0.032

Sequence | protein stability index
SGKFVGCSFWMG | 0.62 ± 0.016
SGLGRPHLRCLD | 0.672 ± 0.042
SGLPPYTPPLSF | 0.80558 ± 0.00056
SGLRFLSWSVHV | 0.6114 ± 0.0051
SGLSPPSRVCGY | 0.651 ± 0.068
SGLWAGVDGRSS | 0.6855 ± 0.0021
SGMGAIADENKE | 0.635 ± 0.051
SGNDIQSLNIVI | 0.754 ± 0.081
SGPSWSGGGWGR | 0.648 ± 0.021
SGRSRVAGVERR | 0.708 ± 0.062
SGSITAGLVRNV | 0.6152 ± 0.0051
SGSSRLRTSPTG | 0.814 ± 0.056
SGTGRINWEGFL | 0.709 ± 0.03
SGVLRLSGTGAV | 0.688 ± 0.0018
SGVSCPGRVDGG | 0.68 ± 0.0085
SGVSRSGREFRN | 0.634 ± 0.088
SGWRGVVGRGGR | 0.625 ± 0.027
SHDLASRQSAFR | 0.648 ± 0.059
SHFHSRDARRSP | 0.673 ± 0.0068
SHKPDLTNVRFV | 0.707 ± 0.044
SHLAHLHPHIAR | 0.675 ± 0.026
SHLGTITPSSLL | 0.662 ± 0.082
SHPWLLDCVTTF | 0.706 ± 0.044
SHRSALLPFLPP | 0.646 ± 0.046
SHSPAPSFPYFP | 0.7367 ± 0.0026
SHSRRRTPSVTP | 0.713 ± 0.083

Sequence | protein stability index
SHTRPRPPLHLP | 0.68 ± 0.038
SIDKINKLTPDV | 0.648 ± 0.052
SIIATHNNNSIW | 0.694 ± 0.014
SILRRFSPPPLL | 0.75 ± 0.051
SISLVLPASCIT | 0.693 ± 0.021
SISQSSSLGLED | 0.677 ± 0.046
SISSFLPRRLPF | 0.662 ± 0.033
SIVRWLTSSLIH | 0.787 ± 0.17
SIVSTPGATACL | 0.67281 ± 0.00029
SIYLLQRRQFDP | 0.677 ± 0.048
SKGSVFGNMGYR | 0.6741 ± 0.0063
SKIQDHLNTAPE | 0.654 ± 0.058
SKKLSMNIIITN | 0.653 ± 0.0047
SKKRHSKNRKSV | 0.71 ± 0.032
SKNEIKNYNTKI | 0.642 ± 0.031
SKNQEDEYTIHE | 0.7 ± 0.024
SKNQQKKCQMIT | 0.534 ± 0.038
SKRIKIEFYVNQ | 0.688 ± 0.12
SKSLRAAQGGRT | 0.684 ± 0.016
SKYVVQSENITG | 0.699 ± 0.015
SLALPLLPPSSP | 0.739 ± 0.05
SLALSPQFLSFP | 0.749 ± 0.081
SLAPSARLYPYH | 0.768 ± 0.03
SLARGFVVPMWP | 0.707 ± 0.045
SLCPVTPPSVGF | 0.656 ± 0.02
SLDFRSARFSLG | 0.65 ± 0.014

Sequence | protein stability index
SLDQGRLRRLVG | 0.641 ± 0.061
SLEALARDRFCT | 0.724 ± 0.014
SLESRGLRSRHY | 0.633 ± 0.073
SLFLLFRSRACS | 0.539 ± 0.011
SLFMRLPLQSSF | 0.65 ± 0.041
SLGFMALFYLPL | 0.649 ± 0.016
SLGWVRDRICSD | 0.75 ± 0.17
SLISRAFYSFSP | 0.699 ± 0.04
SLLFPPSPPPPA | 0.673 ± 0.011
SLLLFPCPWFGL | 0.677 ± 0.019
SLLLPPRPPPRV | 0.744 ± 0.055
SLLPPSPPPSRL | 0.724 ± 0.066
SLLPSSFRAPAP | 0.652 ± 0.045
SLLQSLPSPPPP | 0.639 ± 0.011
SLNQWTGTTLRQ | 0.66 ± 0.02
SLPAFLPAPPLF | 0.6962 ± 0.002
SLPAPPPPPPPH | 0.727 ± 0.034
SLPDTSPSLHPP | 0.59 ± 0.011
SLPPLASPPASI | 0.72 ± 0.1
SLPPPLPRRPPP | 0.729 ± 0.13
